The labels stand for the following.
T1: FcγRIIa R (FcγRIIa allotype with Arg at position 131), extracellular domain with C-terminal His tag (human, UniProt P12318 34-217)
T1 chain: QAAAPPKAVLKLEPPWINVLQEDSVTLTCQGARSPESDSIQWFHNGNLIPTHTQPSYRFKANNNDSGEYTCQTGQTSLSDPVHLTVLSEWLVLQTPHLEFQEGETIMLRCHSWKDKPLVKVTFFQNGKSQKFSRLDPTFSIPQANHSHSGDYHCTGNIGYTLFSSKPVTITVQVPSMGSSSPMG

T2: FcγRIIb, extracellular domain with C-terminal His tag (human, UniProt P31994 43-217)
T2 construct: extracellular domain; also called FcgRIIb; 2b; not shown: His tag attached to the C terminus
T2 sequence (looked up): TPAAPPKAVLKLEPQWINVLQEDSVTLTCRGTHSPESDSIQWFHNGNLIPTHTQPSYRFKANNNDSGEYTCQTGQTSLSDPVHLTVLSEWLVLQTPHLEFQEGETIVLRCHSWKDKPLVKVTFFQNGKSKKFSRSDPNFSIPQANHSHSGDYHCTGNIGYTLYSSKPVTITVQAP

T3: FcgRIIa R (human, UniProt P12318 34-217)
T3 construct: extracellular domain; also called FcγRIIa R; FcγRIIa type R
T3 sequence (looked up): T1 chain

T4: FcgRIIa H (human, UniProt P12318 34-217)
T4 construct: extracellular domain; also called FcγRIIa H; FcγRIIa type H
T4 sequence (looked up): T1 chain with R134H

T5: FcgRIIb (human, UniProt P31994 43-217)
T5 construct: extracellular domain; also called FcγRIIb; CD32B
T5 sequence (looked up): T2 sequence (looked up)

B1: GpH7-A5/GpH7-B3 variant L328_13S/GpL16-k0 (heterodimerized antibody He Ab, L328S in one H chain) (antibody, human IgG1, kappa)
heavy 1: not shown
heavy 2: not shown
light: DIVMTQSPLSLPVTPGEPASISCQASESLVHSNRNTYLHWYLQKPGQSPQLLIYKVSNRFSGVPDRFSGSGSGTDFTLKISRVEAEDVGVYYCSQNTHVPPTFGQGTKVEIERTVAAPSVFIFPPSDEQLKSGTASVVCLLNNFYPREAKVQWKVDNALQSGNSQESVTEQDSKDSTYSLSSTLTLSKADYEKHKVYACEVTHQGLSSPVTKSFNRGEC
notes: Anti-glypican-3 human IgG1-type antibody; the alteration is in only one of the two H chains (the GpH7-B3 chain)
B2: GpH7-A5/GpH7-B3 variant L328_18N/GpL16-k0 (heterodimerized antibody He Ab, L328N in one H chain) (antibody, human IgG1, kappa)
heavy 1: not shown
heavy 2: not shown
light: B1 light
notes: as for B1
B3: GpH7-A5/GpH7-B3 variant L328_15Y/GpL16-k0 (heterodimerized antibody He Ab, L328Y in one H chain) (antibody, human IgG1, kappa)
heavy 1: not shown
heavy 2: not shown
light: B1 light
notes: as for B1
B4: GpH7-A5/GpH7-B3 variant L328_20W/GpL16-k0 (heterodimerized antibody He Ab, L328W in one H chain) (antibody, human IgG1, kappa)
heavy 1: not shown
heavy 2: not shown
light: B1 light
notes: as for B1
B5: GpH7-A5/GpH7-B3 variant I332_11K/GpL16-k0 (heterodimerized antibody He Ab, I332K in one H chain) (antibody, human IgG1, kappa)
heavy 1: not shown
heavy 2: not shown
light: B1 light
notes: as for B1
B6: GpH7-Kn037/GpH7-Hl036/GpL16-k0 (antibody, human IgG1, kappa)
heavy 1: QVQLVQSGAEVKKPGASVTVSCKASGYTFTDYEMHWIRQPPGEGLEWIGAIDPKTGDTAYSESFQDRVTLTADKSTSTAYMELSSLTSEDTAVYYCTRFYSYTYWGQGTLVTVSSASTKGPSVFPLAPSSKSTSGGTAALGCLVKDYFPEPVTVSWNSGALTSGVHTFPAVLQSSGLYSLSSVVTVPSSSLGTQTYICNVNHKPSNTKVDKKVEPKSCDKTHTCPPCPAPELLAGPDVFLFPPKPKDTLMISRTPEVTCVVVDVSHEDPEVKFNWYVDGVEVHNAKTKPREEQYNSTYRVVSVLTVLHQDWLNGKEYKCKVSNKALPAPEEKTISKAKGQPREPQVCTLPPSRDELTKNQVSLWCLVKGFYPSDIAVEWESNGQPENNYKTTPPVLDSDGSFFLYSKLTVDKSRWQQGNVFSCSVMHEALHNHYTQKSLSLSP
heavy 2: B6 heavy 1 with C347Y, D354C, W364S, L366A, Y405V
light: B1 light
notes: also called Kn037/Hl036
B7: GpH7-Kn056/GpH7-Hl055/GpL16-k0 (antibody, human IgG1, kappa)
heavy 1: B6 heavy 1 with L232Y, L233Y, D237S, H266D, Q293L, S296A, E330I
heavy 2: B6 heavy 1 with Q293L, A328M, C347Y, D354C, W364S, L366A, Y405V
light: B1 light
notes: Heterodimerized antibody: knob chain L234Y/L235Y/G236A/H268D/Q295L/S298A, hole chain G236A/S239D/Q295L/A330M/I332E; also called Kn056/Hl055
B8: GpH7-Kn045/GpH7-Hl055/GpL16-k0 (antibody, human IgG1, kappa)
heavy 1: B6 heavy 1 with L232Y, L233Y, D237S, H266D, S296A, E330I
heavy 2: B6 heavy 1 with Q293L, A328M, C347Y, D354C, W364S, L366A, Y405V
light: B1 light
notes: Heterodimerized antibody: knob chain L234Y/L235Y/G236A/H268D/S298A, hole chain G236A/S239D/Q295L/A330M/I332E; also called Kn045/Hl055
B9: GpH7-Kn045/GpH7-Hl048/GpL16-k0 (antibody, human IgG1, kappa)
heavy 1: B6 heavy 1 with L232Y, L233Y, D237S, H266D, S296A, E330I
heavy 2: B6 heavy 1 with A328K, C347Y, D354C, W364S, L366A, Y405V
light: B1 light
notes: Heterodimerized antibody: knob chain L234Y/L235Y/G236A/H268D/S298A, hole chain G236A/S239D/A330K/I332E; also called Kn045/Hl048
B10: GpH7-Kn032/GpH7-Hl032/GpL16-k0 (antibody, human IgG1, kappa)
heavy 1: B6 heavy 1 with A234G, A328L
heavy 2: B6 heavy 1 with A234G, A328L, C347Y, D354C, W364S, L366A, Y405V
light: B1 light
notes: also called Kn032/Hl032

Numbering of substitutions follows the chain as printed. Names may count otherwise.

T6 sequence (P08637 17-208 F176V limits assumed): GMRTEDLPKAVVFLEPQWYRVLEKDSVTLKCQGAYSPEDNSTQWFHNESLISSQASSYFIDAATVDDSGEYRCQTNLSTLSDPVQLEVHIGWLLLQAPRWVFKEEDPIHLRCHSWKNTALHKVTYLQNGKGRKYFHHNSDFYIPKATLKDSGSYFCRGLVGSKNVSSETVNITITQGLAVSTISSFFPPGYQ

One experiment deals with T1, FcγRIIa R (FcγRIIa allotype with Arg at …). The experiment is described as follows: SPR (Biacore T100), antibody captured on antigen peptide chip, FcγR as analyte; binding amount relative to control heterodimerized antibody. The procedure:
(§1) The heterodimerized antibodies He Abs in which one of the H chains was introduced with an alteration were assayed for their binding activities to each activating FcγR and inhibitory FcγR according to the method described in Example 4. […] The activating FcγRs in FIGS. 26, 27, 28, and 29 are FcγRIa, FcγRIIa (R), FcγRIIa (H), and FcγRIIIa, respectively.
(§2) Analysis of interaction between objective antibody and the FcγR was carried out using Biacore T100 (GE Healthcare). HBS-EP+ (GE Healthcare) was used as the running buffer, and the measurement temperature was set to 25° C. Chips produced by immobilizing the antigen peptide by the amine coupling method to a Series S Sencor Chip CM5 (GE Healthcare), or alternatively, chips produced by allowing preliminarily biotinylated antigen peptides to interact with and immobilize onto a Series S Sensor Chip SA (certified) (GE Healthcare) were used. Antibodies of interest were captured onto an antigen peptide-immobilized chip, and allowed to interact to each FcγR diluted with running buffer. To regenerate and repeatedly use the chip, the antibodies captured on the chip were washed off by reacting 10 mM glycine-HCl, pH 1.5.
(In general: Surface plasmon resonance follows binding to a sensor surface in real time, without labels.)
For the molecule B1, the “He/Con_2aR (IIaR binding)” value is 117 relative binding activity, GpH7-A5/GpH7-B3/GpL16-k0 = 100.

As to B2, the “He/Con_2aR (IIaR binding)” value is 59.4 relative binding activity, GpH7-A5/GpH7-B3/GpL16-k0 = 100.

Turning to B3, the “He/Con_2aR (IIaR binding)” value was 136 relative binding activity, GpH7-A5/GpH7-B3/GpL16-k0 = 100.

Take B4: the “He/Con_2aR (IIaR binding)” value was 155 relative binding activity, GpH7-A5/GpH7-B3/GpL16-k0 = 100.

On to B5, for which the “He/Con_2aR (IIaR binding)” value is 43.1 relative binding activity, GpH7-A5/GpH7-B3/GpL16-k0 = 100.

The next experiment concerns the target T2, FcγRIIb, extracellular domain with …. The description is as above. The protocol:
as §1, §2
Consider B1, for which the “He/Con_2b (IIb binding)” value is 149 relative binding activity, GpH7-A5/GpH7-B3/GpL16-k0 = 100.

Consider B2, for which the “He/Con_2b (IIb binding)” value was 80.8 relative binding activity, GpH7-A5/GpH7-B3/GpL16-k0 = 100.

B3: the “He/Con_2b (IIb binding)” value is 193 relative binding activity, GpH7-A5/GpH7-B3/GpL16-k0 = 100.

Regarding B4, the “He/Con_2b (IIb binding)” value was 235 relative binding activity, GpH7-A5/GpH7-B3/GpL16-k0 = 100.

In the case of B5, the “He/Con_2b (IIb binding)” value was 70.9 relative binding activity, GpH7-A5/GpH7-B3/GpL16-k0 = 100.

The next experiment concerns the target T1, FcγRIIa R (FcγRIIa allotype with Arg at …). Kind of experiment: SPR (Biacore T100); ratio of He/Con for FcγRIIa R to He/Con for FcγRIIb of the same antibody.
As for B1, the “He_2aR/2b (IIaR/IIb)” value was determined as 0.78.

Consider B2, for which the “He_2aR/2b (IIaR/IIb)” value was found to be 0.73.

B3: the “He_2aR/2b (IIaR/IIb)” value is 0.7.

As for B4, the “He_2aR/2b (IIaR/IIb)” value worked out at 0.66.

For the molecule B5, the “He_2aR/2b (IIaR/IIb)” value was found to be 0.61.

A further experiment has as its target T6, FcgRIIIa V (human, UniProt P08637 17-208).
T6 construct: extracellular domain; also called FcγRIIIa V; FcγRIIIaV
Kind of experiment: SPR (Biacore); KD of GpH7-Kn033/GpH7-Hl033/GpL16-k0 for this FcγR divided by KD of this antibody. The procedure:
(§3) These antibodies were assessed for the binding activity to each FcγR according to the method described in Reference Example 2.
as §2
On to B6, for which the KD ratio worked out at 84 fold.

Regarding B7, the KD ratio worked out at 327 fold.

On to B8, for which the KD ratio came to 300 fold.

Regarding B9, the KD ratio was found to be 170 fold.

As to B10, the KD ratio turned out to be 182 fold.

The target of the next experiment is T3, FcgRIIa R. The description is as above. The procedure:
as §3, §2
In the case of B6, the KD ratio was determined as 43 fold.

In the case of B7, the KD ratio came out at 44 fold.

B8: the KD ratio was determined as 56 fold.

B9: the KD ratio stood at 154 fold.

B10: the KD ratio is 3 fold.

For another experiment, the target named is T7, FcgRIIIa F (human, UniProt P08637 17-208).
T7 construct: extracellular domain; also called FcγRIIIa F; FcγRIIIaF
T7 sequence (P08637 17-208): as the sequence (P08637 17-208 F176V limits assumed) above, with V160F counted along it
The description is as above. The protocol:
as §3, §2
Consider B6, for which the KD ratio came to 161 fold.

Consider B7, for which the KD ratio was determined as 1110 fold.

Consider B8, for which the KD ratio stood at 985 fold.

Take B9: the KD ratio amounted to 419 fold.

Consider B10, for which the KD ratio turned out to be 381 fold.

Another experiment has as its target T4, FcgRIIa H. The experiment is described as above. The protocol: as §3, §2
Turning to B6, the KD ratio amounted to 22 fold.

B7: the KD ratio was determined as 20 fold.

In the case of B8, the KD ratio is 21 fold.

Take B9: the KD ratio was determined as 52 fold.

Regarding B10, the KD ratio came out at 1.2 fold.

Another experiment has as its target T5, FcgRIIb. The description is as above. The procedure: as §3, §2
Regarding B6, the KD ratio is 16 fold.

In the case of B7, the KD ratio is 14 fold.

For B8, the KD ratio was found to be 15 fold.

As for B9, the KD ratio is 34 fold.

In the case of B10, the KD ratio was found to be 8.2 fold.

The target of a further experiment is T8, FcgRIa (human, UniProt P12314 16-292).
T8 construct: extracellular domain; also called FcγRIa; FcγRI
T8 sequence (P12314 16-292): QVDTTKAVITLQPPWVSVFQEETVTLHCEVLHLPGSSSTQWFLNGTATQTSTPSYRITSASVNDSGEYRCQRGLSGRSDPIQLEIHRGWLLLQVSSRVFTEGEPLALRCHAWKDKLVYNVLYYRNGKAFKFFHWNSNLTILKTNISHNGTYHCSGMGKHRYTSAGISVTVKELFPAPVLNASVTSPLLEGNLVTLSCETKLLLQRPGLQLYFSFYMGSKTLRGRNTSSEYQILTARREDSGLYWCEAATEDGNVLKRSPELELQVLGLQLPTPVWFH
The experiment is described as above. The procedure:
as §3, §2
Consider B6, for which the KD ratio is 6 fold.

On to B7, for which the KD ratio was 2.9 fold.

With B8, the KD ratio amounted to 3.7 fold.

As for B9, the KD ratio was determined as 3.7 fold.

In the case of B10, the KD ratio was determined as 24 fold.

The record behind these values is patent US20150344570A1 (published 2015).
